From patent US20240400715A1 (VIBRANT PHARMA, published 2024)
Where “and” joins values, the source holds several entries; their conditions need not be identical. Identical values can stand only once.

B1: Knob-Fab+CEA-Hole (108) (bispecific antibody, human IgG4 S228P, kappa, F234A L235A)
heavy: ESKYGPPCPPCPAPEAAGGPSVFLFPPKPKDTLMISRTPEVTCVVVDVSQEDPEVQFNWYVDGVEVHNAKTKPREEQFNSTYRVVSVLTVLHQDWLNGKEYKCKVSNKGLPSSIEKTISKAKGQPREPQVYTLPPCQEEMTKNQVSLWCLVKGFYPSDIAVEWESNGQPENNYKTTPPVLDSDGSFFLYSRLTVDKSRWQEGNVFSCSVMHEALHNHYTQKSLSLSLGGGGSGGGGSEVKLLESGGGLVQPKGSLKLSCAASGFTFNTYAMNWVRQAPGKGLEWVARIRSKYNNYATYYADSVKDRFTISRDDSQSILYLQMNNLKTEDTAMYYCVRHGNFGNSYVSWFAYWGQGTLVTVSSASTKGPSVFPLAPCSRSTSESTAALGCLVKDYFPEPVTVSWNSGALTSGVHTFPAVLQSSGLYSLSSVVTVPSSSLGTKTYTCNVDHKPSNTKVDKRV
chain: EVQLVESGGGFVQAGESLTLSCTSSTLTFTPYRMAWYRQAPGKQRDLVADISSGDGRTTNYADFAKGRFTISRDNIKNTVFLRMTNLKPEDTAVYYCNTFVSFVGIARSWGQGTQVTVSSESKYGPPCPPCPAPEAAGGPSVFLFPPKPKDTLMISRTPEVTCVVVDVSQEDPEVQFNWYVDGVEVHNAKTKPREEQFNSTYRVVSVLTVLHQDWLNGKEYKCKVSNKGLPSSIEKTISKAKGQPREPQVCTLPPSQEEMTKNQVSLSCAVKGFYPSDIAVEWESNGQPENNYKTTPPVLDSDGSFFLVSRLTVDKSRWQEGNVFSCSVMHEALHNRFTQKSLSLSL
light: QAVVTQESALTTSPGETVTLTCRSSTGAVTTSNYANWVQEKPDHLFTGLIGGTNKRAPGVPARFSGSLIGDKAALTITGAQTEDEAIYFCALWYSNLWVFGGGTKVEIKRTVAAPSVFIFPPSDEQLKSGTASVVCLLNNFYPREAKVQWKVDNALQSGNSQESVTEQDSKDSTYSLSSTLTLSKADYEKHKVYACEVTHQGLSSPVTKSFNRGEC
notes: Anti-CD3 TA1 Fab + anti-CEA VHH C17 on human IgG4 knob-into-hole Fc
B2: Knob-Fab+Hole-CEA (109) (bispecific antibody, human IgG4 S228P, kappa, F234A L235A)
heavy: B1 heavy
chain: ESKYGPPCPPCPAPEAAGGPSVFLFPPKPKDTLMISRTPEVTCVVVDVSQEDPEVQFNWYVDGVEVHNAKTKPREEQFNSTYRVVSVLTVLHQDWLNGKEYKCKVSNKGLPSSIEKTISKAKGQPREPQVCTLPPSQEEMTKNQVSLSCAVKGFYPSDIAVEWESNGQPENNYKTTPPVLDSDGSFFLVSRLTVDKSRWQEGNVFSCSVMHEALHNRFTQKSLSLSLGGGGSGGGGSEVQLVESGGGFVQAGESLTLSCTSSTLTFTPYRMAWYRQAPGKQRDLVADISSGDGRTTNYADFAKGRFTISRDNIKNTVFLRMTNLKPEDTAVYYCNTFVSFVGIARSWGQGTQVTVSS
light: B1 light
notes: as for B1
B3: Fab (Light)-Knob+Fab (Heavy)-Hole-CEA (210) (bispecific antibody, human IgG4 S228P, kappa, F234A L235A)
chain: QAVVTQESALTTSPGETVTLTCRSSTGAVTTSNYANWVQEKPDHLFTGLIGGTNKRAPGVPARFSGSLIGDKAALTITGAQTEDEAIYFCALWYSNLWVFGGGTKVEIKRTVAAPSVFIFPPSDEQLKSGTASVVCLLNNFYPREAKVQWKVDNALQSGNSQESVTEQDSKDSTYSLSSTLTLSKADYEKHKVYACEVTHQGLSSPVTKSFNRGECESKYGPPCPPCPAPEAAGGPSVFLFPPKPKDTLMISRTPEVTCVVVDVSQEDPEVQFNWYVDGVEVHNAKTKPREEQFNSTYRVVSVLTVLHQDWLNGKEYKCKVSNKGLPSSIEKTISKAKGQPREPQVYTLPPCQEEMTKNQVSLWCLVKGFYPSDIAVEWESNGQPENNYKTTPPVLDSDGSFFLYSRLTVDKSRWQEGNVFSCSVMHEALHNHYTQKSLSLSL
heavy: EVKLLESGGGLVQPKGSLKLSCAASGFTFNTYAMNWVRQAPGKGLEWVARIRSKYNNYATYYADSVKDRFTISRDDSQSILYLQMNNLKTEDTAMYYCVRHGNFGNSYVSWFAYWGQGTLVTVSSASTKGPSVFPLAPCSRSTSESTAALGCLVKDYFPEPVTVSWNSGALTSGVHTFPAVLQSSGLYSLSSVVTVPSSSLGTKTYTCNVDHKPSNTKVDKRVESKYGPPCPPCPAPEAAGGPSVFLFPPKPKDTLMISRTPEVTCVVVDVSQEDPEVQFNWYVDGVEVHNAKTKPREEQFNSTYRVVSVLTVLHQDWLNGKEYKCKVSNKGLPSSIEKTISKAKGQPREPQVCTLPPSQEEMTKNQVSLSCAVKGFYPSDIAVEWESNGQPENNYKTTPPVLDSDGSFFLVSRLTVDKSRWQEGNVFSCSVMHEALHNRFTQKSLSLSLGGGGSGGGGSEVQLVESGGGFVQAGESLTLSCTSSTLTFTPYRMAWYRQAPGKQRDLVADISSGDGRTTNYADFAKGRFTISRDNIKNTVFLRMTNLKPEDTAVYYCNTFVSFVGIARSWGQGTQVTVSS
notes: Two-chain format; human IgG4 knob-into-hole Fc; also called CEA-CD3 bispecific antibody 210
B4: Fab (Light)-Knob-CEA+Fab (Heavy)-Hole (209) (bispecific antibody, human IgG4 S228P, kappa, F234A L235A)
chain: QAVVTQESALTTSPGETVTLTCRSSTGAVTTSNYANWVQEKPDHLFTGLIGGTNKRAPGVPARFSGSLIGDKAALTITGAQTEDEAIYFCALWYSNLWVFGGGTKVEIKRTVAAPSVFIFPPSDEQLKSGTASVVCLLNNFYPREAKVQWKVDNALQSGNSQESVTEQDSKDSTYSLSSTLTLSKADYEKHKVYACEVTHQGLSSPVTKSFNRGECESKYGPPCPPCPAPEAAGGPSVFLFPPKPKDTLMISRTPEVTCVVVDVSQEDPEVQFNWYVDGVEVHNAKTKPREEQFNSTYRVVSVLTVLHQDWLNGKEYKCKVSNKGLPSSIEKTISKAKGQPREPQVYTLPPCQEEMTKNQVSLWCLVKGFYPSDIAVEWESNGQPENNYKTTPPVLDSDGSFFLYSRLTVDKSRWQEGNVFSCSVMHEALHNHYTQKSLSLSLGGGGSGGGGSEVQLVESGGGFVQAGESLTLSCTSSTLTFTPYRMAWYRQAPGKQRDLVADISSGDGRTTNYADFAKGRFTISRDNIKNTVFLRMTNLKPEDTAVYYCNTFVSFVGIARSWGQGTQVTVSS
heavy: EVKLLESGGGLVQPKGSLKLSCAASGFTFNTYAMNWVRQAPGKGLEWVARIRSKYNNYATYYADSVKDRFTISRDDSQSILYLQMNNLKTEDTAMYYCVRHGNFGNSYVSWFAYWGQGTLVTVSSASTKGPSVFPLAPCSRSTSESTAALGCLVKDYFPEPVTVSWNSGALTSGVHTFPAVLQSSGLYSLSSVVTVPSSSLGTKTYTCNVDHKPSNTKVDKRVESKYGPPCPPCPAPEAAGGPSVFLFPPKPKDTLMISRTPEVTCVVVDVSQEDPEVQFNWYVDGVEVHNAKTKPREEQFNSTYRVVSVLTVLHQDWLNGKEYKCKVSNKGLPSSIEKTISKAKGQPREPQVCTLPPSQEEMTKNQVSLSCAVKGFYPSDIAVEWESNGQPENNYKTTPPVLDSDGSFFLVSRLTVDKSRWQEGNVFSCSVMHEALHNRFTQKSLSLSL
notes: Two-chain format; human IgG4 knob-into-hole Fc
B5: 308 (TA3), configuration of FIG. 1X (bispecific antibody, IgG4)
heavy: EVQLVESGGGLVQPGGSLRLSCAASGYSFTGYTMNWVRQAPGKGLEWVALINPYKGVSTYNQKFKDRFTISVDKSKNTAYLQMNSLRAEDTAVYYCARSGYYGDSDWYFDVWGQGTLVTVSSASTKGPSVFPLAPCSRSTSESTAALGCLVKDYFPEPVTVSWNSGALTSGVHTFPAVLQSSGLYSLSSVVTVPSSSLGTKTYTCNVDHKPSNTKVDKRVESKYGPPCPPCPAPEAAGGPSVFLFPPKPKDTLMISRTPEVTCVVVDVSQEDPEVQFNWYVDGVEVHNAKTKPREEQFNSTYRVVSVLTVLHQDWLNGKEYKCKVSNKGLPSSIEKTISKAKGQPREPQVYTLPPCQEEMTKNQVSLWCLVKGFYPSDIAVEWESNGQPENNYKTTPPVLDSDGSFFLYSRLTVDKSRWQEGNVFSCSVMHEALHNHYTQKSLSLSLGGGGSGGGGSEVQLVESGGGFVQAGESLTLSCTSSTLTFTPYRMAWYRQAPGKQRDLVADISSGDGRTTNYADFAKGRFTISRDNIKNTVFLRMTNLKPEDTAVYYCNTFVSFVGIARSWGQGTQVTVSS
chain: ESKYGPPCPPCPAPEAAGGPSVFLFPPKPKDTLMISRTPEVTCVVVDVSQEDPEVQFNWYVDGVEVHNAKTKPREEQFNSTYRVVSVLTVLHQDWLNGKEYKCKVSNKGLPSSIEKTISKAKGQPREPQVCTLPPSQEEMTKNQVSLSCAVKGFYPSDIAVEWESNGQPENNYKTTPPVLDSDGSFFLVSRLTVDKSRWQEGNVFSCSVMHEALHNRFTQKSLSLSL
light: DIQMTQSPSSLSASVGDRVTITCRASQDIRNYLNWYQQKPGKAPKLLIYYTSRLESGVPSRFSGSGSGTDYTLTISSLQPEDFATYYCQQGNTLPWTFGQGTKVEIK
notes: chains put together from parts; IgG4, kappa; not shown: kappa light chain constant domain (CL)

Target: T1, human CD3 on Jurkat cells (human, UniProt P07766 23-207; P04234 22-171; P09693 23-182)
T1 construct: whole, on cells; CD3 complex as on Jurkat (Clone E6-1) cells; also called CD3 expressing cells (Jurkat)
Experiment: FACS, Jurkat cells;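 further: flow cytometric binding of bispecific antibodies to Jurkat T cells, threefold serial dilutions incubated half an hour in the cold, EC50 taken from the fitted binding curve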

Binder	EC50
B1	5.53 µg/mL and 42.5 nM
B2	12.1 µg/mL and 93 nM
B3	2.08 µg/mL and 16 nM
B4	0.866 µg/mL and 6.66 nM
B5	4.59 µg/mL and 35.3 nM

Target: T2, human CD3ε/δ (ACRO systems, CDD-H52W1) (human, UniProt P07766 23-126; P04234 22-105)
T2 construct: Bought protein; also called human CD3ϵ/CD3δ; human CD3 epsilon/delta antigen
Experiment: BLI, antibody captured, antigen in solution;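 further: bispecific antibodies captured on AHIC biosensors to a 1.5 nm loading signal, in PBST with 0.02% detergent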
Method: The bispecific antibodies were diluted to 5 ag/ml, and 1.5 nm protein was coupled to the surface of the AHIC sensor chip through 0.02% PBST.

Binder	Kd	koff	kon
B1	1.79 nM	0.00047 s⁻¹	262000 M⁻¹ s⁻¹
B2	1.67 nM	0.000485 s⁻¹	291000 M⁻¹ s⁻¹
B3	2.83 nM	0.000689 s⁻¹	243000 M⁻¹ s⁻¹
B4	2.01 nM	0.000338 s⁻¹	168000 M⁻¹ s⁻¹
B5	3.01 nM	0.000997 s⁻¹	
